Results published in US20260139057A1 (University of California, published 2026).
Blank lines part the entries; values can stand above or below the molecule they belong to.

Legend:
[1] = biological target: integrin αvβ6 ectodomain (immobilized) (human, UniProt P06756 31-992; P18564 22-709)
[2] = biological target: T1, human integrin αvβ8 on transfected cells (CHO cells stably transfected; HEK 293 cells stably expressing αvβ8) (human, UniProt P06756 31-1048; P26012 43-769); assay: flow cytometry on CHO cells expressing human αvβ8 fixed in 2% buffered formalin for 15 min, antibody titrated, hyperbolic least-squares fit (m3 = KD); curves on D00025 [Cont.]
T1 construct: whole, on cells; also called CHO αvβ8 cells; αvβ8 expressing CHO cells
T1 sequence (P06756 31-1048, chain 1 of 2): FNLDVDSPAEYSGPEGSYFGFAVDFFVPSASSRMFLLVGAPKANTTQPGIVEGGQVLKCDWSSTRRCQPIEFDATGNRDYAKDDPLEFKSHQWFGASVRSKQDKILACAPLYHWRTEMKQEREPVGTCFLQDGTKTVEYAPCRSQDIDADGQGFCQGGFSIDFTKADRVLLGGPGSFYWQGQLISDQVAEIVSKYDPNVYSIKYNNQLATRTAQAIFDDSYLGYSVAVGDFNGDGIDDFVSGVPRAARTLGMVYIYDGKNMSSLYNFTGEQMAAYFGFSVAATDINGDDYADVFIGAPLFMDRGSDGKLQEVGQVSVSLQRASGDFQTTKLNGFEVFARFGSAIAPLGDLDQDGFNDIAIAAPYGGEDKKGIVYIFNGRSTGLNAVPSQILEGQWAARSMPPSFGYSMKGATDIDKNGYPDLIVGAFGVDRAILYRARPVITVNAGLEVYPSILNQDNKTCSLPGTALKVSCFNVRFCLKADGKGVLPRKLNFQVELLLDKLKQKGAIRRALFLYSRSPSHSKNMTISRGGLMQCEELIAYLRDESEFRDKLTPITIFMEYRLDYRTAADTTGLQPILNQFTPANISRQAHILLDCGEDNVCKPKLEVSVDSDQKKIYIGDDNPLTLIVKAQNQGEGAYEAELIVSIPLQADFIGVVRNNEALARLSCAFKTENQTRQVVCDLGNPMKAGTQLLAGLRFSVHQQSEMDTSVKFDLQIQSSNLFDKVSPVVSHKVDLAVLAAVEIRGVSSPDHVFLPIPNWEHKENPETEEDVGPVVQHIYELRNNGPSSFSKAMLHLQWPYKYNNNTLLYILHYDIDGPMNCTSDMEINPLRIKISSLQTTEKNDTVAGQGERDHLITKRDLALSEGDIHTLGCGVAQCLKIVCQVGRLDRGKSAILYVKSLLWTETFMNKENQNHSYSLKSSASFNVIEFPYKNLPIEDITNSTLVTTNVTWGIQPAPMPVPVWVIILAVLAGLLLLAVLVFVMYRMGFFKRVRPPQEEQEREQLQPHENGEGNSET
T1 sequence (P26012 43-769, chain 2 of 2): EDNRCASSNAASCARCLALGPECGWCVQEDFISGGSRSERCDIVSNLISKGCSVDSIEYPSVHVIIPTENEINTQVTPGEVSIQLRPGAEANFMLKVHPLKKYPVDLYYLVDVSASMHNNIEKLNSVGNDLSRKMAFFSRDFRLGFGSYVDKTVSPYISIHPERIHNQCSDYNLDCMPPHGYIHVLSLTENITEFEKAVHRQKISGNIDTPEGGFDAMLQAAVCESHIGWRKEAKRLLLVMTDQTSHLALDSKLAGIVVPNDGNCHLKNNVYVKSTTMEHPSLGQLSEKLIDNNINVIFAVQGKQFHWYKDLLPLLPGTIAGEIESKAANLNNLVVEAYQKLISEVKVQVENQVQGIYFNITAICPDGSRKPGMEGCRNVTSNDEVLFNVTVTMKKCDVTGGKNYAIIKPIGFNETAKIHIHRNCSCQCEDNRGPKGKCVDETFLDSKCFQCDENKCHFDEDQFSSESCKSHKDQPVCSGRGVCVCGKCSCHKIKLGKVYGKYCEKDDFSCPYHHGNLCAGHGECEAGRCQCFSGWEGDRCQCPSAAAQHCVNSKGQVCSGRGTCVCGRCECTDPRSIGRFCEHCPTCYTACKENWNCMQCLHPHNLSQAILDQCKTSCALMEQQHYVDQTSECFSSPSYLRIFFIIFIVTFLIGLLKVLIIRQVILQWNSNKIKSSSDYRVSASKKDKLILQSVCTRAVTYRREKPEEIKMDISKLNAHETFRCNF
Experimental: (§1) FIG. 17: Characterization of cell surface binding of humanized affinity optimized anti-αvβ8 antibodies. The cell surface binding affinities of H4C8, H4G9, H4C10, H4G8 compared to HuC6D4F12 expressed as IgG4 (S228P to prevent arm exchange, R409K and L445P to reduce aggregation and to promote stability). […] Cell surface affinity was determined using the least-squares fit model based on the hyperbolic equation y=m1+m2*m0/(m3+m0), where y=MFI at different avb8 concentrations; m0=αvβ8 concentration; m1=MFI with no αvβ8; m2=MFI at saturation; and m3=KD.
(§2) FIG. 18: Binding characteristics of H4C8 of formalin fixed αvβ8 compared to HuC6D4F12 or ADWA11 2.4 (from Pat no. US2020/0079855 A1). CHO αvβ8 expressing cells were fixed in 2% buffered formalin in PBS for 15 min at RT and then stained at the indicated concentrations as described in FIG. 17. The binding affinities to unfixed or formalin fixed cells is shown. Cell surface affinity was determined using the least-squares fit model based on the hyperbolic equation y=m1+m2*m0/(m3+m0), where y=MFI at different αvβ8 concentrations; m0=αvβ8 concentration; m1=MFI with no αvβ8; m2=MFI at saturation; and m3=KD.

[3] = biological target: T1, human integrin αvβ8 on transfected …; assay: flow cytometry on unfixed CHO cells expressing human αvβ8, antibody titrated, hyperbolic least-squares fit (m3 = KD); curves on D00025 [Cont.]
Experimental: as §1, §2

[4] = biological target: T2, recombinant human integrin αvβ8 ectodomain (human, UniProt P06756 31-992; P26012 43-681); assay: cell-based or functional assay
T2 sequence (P06756 31-992 limits assumed, chain 1 of 2): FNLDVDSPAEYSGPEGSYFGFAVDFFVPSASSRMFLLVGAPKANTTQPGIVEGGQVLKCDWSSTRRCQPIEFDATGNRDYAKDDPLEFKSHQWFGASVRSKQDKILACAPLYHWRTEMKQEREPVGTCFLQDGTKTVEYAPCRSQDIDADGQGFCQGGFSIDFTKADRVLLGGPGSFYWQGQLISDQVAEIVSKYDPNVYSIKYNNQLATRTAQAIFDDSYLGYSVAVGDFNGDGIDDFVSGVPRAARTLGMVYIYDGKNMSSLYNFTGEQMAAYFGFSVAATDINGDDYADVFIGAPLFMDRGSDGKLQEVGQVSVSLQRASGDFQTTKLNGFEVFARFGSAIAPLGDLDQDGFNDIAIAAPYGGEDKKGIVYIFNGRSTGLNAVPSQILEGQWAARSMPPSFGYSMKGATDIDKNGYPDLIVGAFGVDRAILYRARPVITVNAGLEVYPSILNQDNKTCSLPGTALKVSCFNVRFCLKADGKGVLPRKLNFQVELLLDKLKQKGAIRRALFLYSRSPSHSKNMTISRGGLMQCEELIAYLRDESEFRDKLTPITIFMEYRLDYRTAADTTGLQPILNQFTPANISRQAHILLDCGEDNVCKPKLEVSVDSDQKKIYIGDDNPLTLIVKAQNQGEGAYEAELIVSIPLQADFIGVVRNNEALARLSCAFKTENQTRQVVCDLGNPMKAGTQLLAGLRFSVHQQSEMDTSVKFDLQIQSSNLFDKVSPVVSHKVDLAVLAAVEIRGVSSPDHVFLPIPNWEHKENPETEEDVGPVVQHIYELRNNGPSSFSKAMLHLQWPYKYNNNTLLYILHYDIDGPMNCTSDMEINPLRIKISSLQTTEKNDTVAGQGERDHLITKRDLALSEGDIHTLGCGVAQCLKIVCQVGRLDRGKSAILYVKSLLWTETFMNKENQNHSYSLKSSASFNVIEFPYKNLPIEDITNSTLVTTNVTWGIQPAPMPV
T2 sequence (P26012 43-681 limits assumed, chain 2 of 2): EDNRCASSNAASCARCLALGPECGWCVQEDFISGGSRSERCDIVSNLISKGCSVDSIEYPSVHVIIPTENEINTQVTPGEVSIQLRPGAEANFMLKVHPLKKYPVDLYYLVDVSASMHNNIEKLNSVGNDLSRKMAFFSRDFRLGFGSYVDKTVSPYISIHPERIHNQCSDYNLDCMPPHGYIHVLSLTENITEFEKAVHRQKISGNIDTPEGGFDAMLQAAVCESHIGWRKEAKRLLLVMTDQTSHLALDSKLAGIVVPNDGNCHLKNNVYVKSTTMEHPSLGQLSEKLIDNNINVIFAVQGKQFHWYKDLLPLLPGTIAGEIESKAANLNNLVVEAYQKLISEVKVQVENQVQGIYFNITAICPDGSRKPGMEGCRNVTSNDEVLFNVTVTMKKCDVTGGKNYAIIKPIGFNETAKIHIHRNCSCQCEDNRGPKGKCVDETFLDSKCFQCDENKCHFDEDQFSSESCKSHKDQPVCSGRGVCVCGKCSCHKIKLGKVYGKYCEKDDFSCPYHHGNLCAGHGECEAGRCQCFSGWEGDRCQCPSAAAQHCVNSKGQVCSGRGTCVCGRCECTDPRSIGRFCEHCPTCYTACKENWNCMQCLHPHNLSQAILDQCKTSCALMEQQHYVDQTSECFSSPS

[5] = biological target: T2, recombinant human integrin αvβ8 …; assay: cell-based or functional assay; remark: listed apart in the source
[6] = biological target: T2, recombinant human integrin αvβ8 …; assay: cell-based or functional assay; remark: listed apart in the source
[7] = biological target: T2, recombinant human integrin αvβ8 …; assay: cell-based or functional assay; remark: listed apart in the source
[8] = biological target: T2, recombinant human integrin αvβ8 …; assay: cell-based or functional assay; remark: listed apart in the source
[9] = biological target: T2, recombinant human integrin αvβ8 …; assay: yeast-displayed scFv titrated with αvβ8 ectodomain, flow cytometry, hyperbolic fit
Experimental: After induction and screening of the pooled transformants for scFV expression using anti-V5 (clone SV5), the avb8 ectodomain was incubated with the yeast pool, washed and scFV which bound to αvβ8 were detected using anti-human αv (clone 8β8). After multiple rounds of selection by sorting yeast stained under conditions of increasing stringency (Low Ag concentration, short Kon and long Koff), individual clones were isolated, sequenced and tested for binding affinity. Shown are the sequences of VH and VL pairs enriched in the library. The binding affinities of representative yeast clones was determined using a least-squares fit model based on the hyperbolic equation y=m1+m2*m0/(m3+m0), where y=MFI at different αvβ8 concentrations; m0=αvβ8 concentration; m1=MFI with no αvβ8; m2=MFI at saturation; and m3=KD. […]
We then created a scFV yeast display library (Library 3) with degenerate positions coding for novel amino acids (i.e. not in germline human or mouse Ig sequence databases), back mutations to mouse from clone H1.1, as well as final humanization of Fr4 VH and VL based on the human germline (SEQ ID NO: 29, 30 and 32). […] After induction and screening of the pooled transformants for scFV expression using anti-V5 (clone SV5), the αvβ8 ectodomain was incubated with the yeast pool, washed and scFV which bound to αvβ8 were detected using anti-human αv (clone 8β8). […]

[10] = biological target: T2, recombinant human integrin αvβ8 …; assay: MFI against concentration, fit y = m1 + m2*M0/(m3+M0), m3 = KD; paragraph 50 and paragraph 227 give these KD values for the yeast scFv with soluble αvβ8, the legend of FIG. 17 speaks of IgG4 on CHO αvβ8 cells

Sequence of integrin αvβ6 ectodomain (immobilized) (P06756 31-992, chain 1 of 2): as the sequence (P06756 31-992 limits assumed, chain 1 of 2) above
Sequence of integrin αvβ6 ectodomain (immobilized) (P18564 22-709, chain 2 of 2): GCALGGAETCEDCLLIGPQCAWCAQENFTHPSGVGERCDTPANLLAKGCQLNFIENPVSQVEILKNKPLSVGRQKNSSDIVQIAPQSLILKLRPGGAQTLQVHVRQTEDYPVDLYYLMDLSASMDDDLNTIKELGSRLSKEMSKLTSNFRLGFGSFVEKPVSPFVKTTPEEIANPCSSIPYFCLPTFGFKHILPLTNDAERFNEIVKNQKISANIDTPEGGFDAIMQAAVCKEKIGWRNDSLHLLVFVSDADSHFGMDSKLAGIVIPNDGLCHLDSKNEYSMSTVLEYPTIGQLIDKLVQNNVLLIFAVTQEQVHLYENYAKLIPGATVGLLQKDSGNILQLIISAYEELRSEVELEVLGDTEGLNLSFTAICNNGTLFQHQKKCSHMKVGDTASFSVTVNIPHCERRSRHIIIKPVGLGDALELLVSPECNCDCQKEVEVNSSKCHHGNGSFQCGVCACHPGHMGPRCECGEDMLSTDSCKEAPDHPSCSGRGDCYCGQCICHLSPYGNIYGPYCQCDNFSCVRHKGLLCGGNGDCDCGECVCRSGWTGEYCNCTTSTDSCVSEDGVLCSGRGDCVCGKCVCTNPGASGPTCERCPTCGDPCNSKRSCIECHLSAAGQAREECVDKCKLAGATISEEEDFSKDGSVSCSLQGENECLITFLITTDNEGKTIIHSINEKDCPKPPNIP

ED50 of the inhibition of αvβ6-mediated TGF-β activation (immobilized human αvβ6, TMLC GARP/L-TGF-β reporter cells) [1]: 0.22 mg/L
Molecule: 3G9 (anti-β6), mouse IgG2a (antibody)

Kd [2]: 56 nM
Kd [3]: 20 nM
EC50 of the inhibition of αvβ8-mediated TGF-β activation (TMLC GARP/TGF-β luciferase reporter cells on αvβ8-coated wells) [4]: 274 mg/L
B1: ADWA11 2.4 antibody (from US2020/0079855 A1) (antibody, V domains shown)
VH: EVQLVESGGGLVQPGGSLRLSCAASGFNIKDYYMNWVRQAPGKGLEWVGWIDPDQGNTIYEPKFQGRFTISADTSKNSAYLQMNSLRAEDTAVYYCARRLLMDYWGQGTLVTVSS
VL: DIQMTQSPSSLSASVGDRVTITCRSTKSLSHFNGNTYLFWYQQKPGKAPKRLIYYMSSLASGVPSRFSGSGSGTDFTLTISSLQPEDFATYYCQQSLEYPFTFGGGTKVEIKR

IC50 of the inhibition of TGF-β activation (TMLC GARP/TGF-β1 reporter cells on αvβ8-coated wells) [5]: 0.0922 mg/L
EC50 of inhibition of αvβ8-mediated TGF-β activation [6]: 200 nM
ED50 of the inhibition of αvβ8-mediated TGF-β activation (immobilized αvβ8, TMLC GARP/L-TGF-β reporter cells) [7]: 0.02 mg/L
IC50 (read off the curve) [8]: ~0.3 mg/L
B2: HuF12 IgG2a (antibody)
heavy: QIQLVQSGAEVKKPGASVKISCKASGYTFTKYSMHWVRQAPGQGLEWVARINTETGEPTFADDFRGRFTVTLDTSTSTAYLEIRSLRSDDTAVYFCAIFYYGRDTWGQGTTLTVSSASTKGPSVFPLAPSSKSTSGGTAALGCLVKDYFPEPVTVSWNSGALTSGVHTFPAVLQSSGLYSLSSVVTVPSSSLGTQTYICNVNHKPSNTKVDKKIVPRDCGCKPCICTVPEVSSVFIFPPKPKDVLTITLTPKVTCVVVDISKDDPEVQFSWFVDDVEVHTAQTQPREEQFNSTFRSVSELPIMHQDWLNGKEFKCRVNSAAFPAPIEKTISKTKGRPKAPQVYTIPPPKEQMAKDKVSLTCMITDFFPEDITVEWQWNGQPAENYKNTQPIMDTDGSYFVYSKLNVQKSNWEAGNTFTCSVLHEGLHNHHTEKSLSHSPGK
VL: EIVMTQSPATLSVSPGERVTMSCKSSQSLLHSRSRKNYLAWYQQKPGQAPRLLIYWASTRESGVPARFSGSGSGTEFTLTISSVQSEDFAVYYCKQSYNLLSFGQGTVLEIKR

Kd [9]: 6.7 nM
Kd [10]: 6.05 nM
B3: HuF12 scFv displayed on yeast (scFv, V domains shown)
VH: QIQLVQSGAEVKKPGASVKISCKASGYTFTKYSMHWVRQAPGQGLEWVARINTETGEPTFADDFRGRFTVTLDTSTSTAYLEIRSLRSDDTAVYFCAIFYYGRDTWGQGTTLTVSS
VL: EIVMTQSPATLSVSPGERVTMSCKSSQSLLHSRSRKNYLAWYQQKPGQAPRLLIYWASTRESGVPARFSGSGSGTEFTLTISSVQSEDFAVYYCKQSYNLLSFGQGTVLEIKR
notes: scFv in vector pYD4 on yeast; also called HuC6D4F12 scFV

Kd [9]: 3.8 nM
Kd [10]: 3.76 nM
B4: H4C8 scFv displayed on yeast (scFv, V domains shown)
VH: QVQLVQSGAEVKKPGASVKVSCKVSGYTLTRQSMHWVRQAPGKGLEWMGRINTETGEPTYAQKFQGRVTMTQDTSTDTAYMELSSLRSEDTAVYFCAIFYYGRDTWGQGTTVTVSS
VL: EIVMTQSPATLSVSPGERVTLSCRSSQSLLHSRSRKNYLAWYQQKPGQAPRLLIYWASTRETGVPARFSGSGSGTEFTLTISSLQSEDFAVYYCKQSYNLLSFGQGTKVEIKR
notes: scFv in pYD4 on yeast
